One assay concerns the target T1, rat α-CGRP (Rattus norvegicus, UniProt P01256).
T1 construct: rat α (1-37); purchased GenScript Corporation or Global Peptide Services
T1 sequence (P01256 83-119 limits assumed): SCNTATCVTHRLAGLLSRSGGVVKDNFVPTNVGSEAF
As to the kind of experiment: Biacore SPR affinity of Fab fragments to N-biotinylated rat α-CGRP on SA chip. The class given is binding. The note with it: 37° C., screening mode except underlined values. Here is the method:
(§1) Affinity determination of the Fabs. Affinities of the anti-CGRP monoclonal antibodies were determined at either 25° C. or 37° C. using the BIACORE3000™ surface plasmon resonance (SPR) system (Biacore, INC, Piscataway N.J.) with the manufacture's own running buffer, HBS-EP (10 mM HEPES pH 7.4, 150 mM NaCl, 3 mM EDTA, 0.005% v/v polysorbate P20). Affinity was determined by capturing N-terminally biotinylated CGRP peptides (custom ordered from GenScript Corporation, New Jersey or Global Peptide Services, Colorado) via pre-immobilized streptavidin on SA chip and measuring binding kinetics of antibody Fab titrated across the CGRP surface. Biotinylated CGRP was diluted into HBS-EP and injected over the chip at a concentration of less than 0.001 mg/ml. Using variable flow time across the individual chip channels, two ranges of antigen density were achieved: <50 response units (RU) for detailed kinetic studies and about 800 RU for concentration studies and screening. […] After each binding cycle, surfaces were regenerated with 25 mM NaOH in 25% v/v ethanol, which was tolerated over hundreds of cycles. Kinetic association rate (kon) and dissociation rate (koff) were obtained simultaneously by fitting the data to a 1:1 Langmuir binding model (Karlsson et al. (1994). Methods Enzymology 6. 99-110) using the BIAevaluation program. Global equilibrium dissociation constants (KD) or “affinities” were calculated from the ratio KD=koff/kon.
(§2) Biacore assay for affinity determination. […] All Biacore assays were conducted in HBS-EP running buffer (10 mM HEPES pH 7.4, 150 mM NaCl, 3 mM EDTA, 0.005% v/v polysorbate P20). CGRP surfaces were prepared by diluting the N-biotinylated CGRP to a concentration of less than 0.001 mg/mL into HBS-EP buffer and injecting it across the SA sensor chip using variable contact times. Low capacity surfaces, corresponding to capture levels <50 response units (RU) were used for high-resolution kinetic studies, whereas high capacity surfaces (about 800 RU of captured CGRP) were used for concentration studies, screening, and solution affinity determinations. […] Samples were typically injected for 1 minute at 100 μL/min and dissociation times of at least 10 minutes were allowed. After each binding cycle, surfaces were regenerated with 25 mM NaOH in 25% v/v ethanol, which was tolerated over hundreds of cycles. An entire titration series (typically generated in duplicate) was fit globally to a 1:1 Langmuir binding model using the BIAevaluation program. This returned a unique pair of association and dissociation kinetic rate constants (respectively, kon and koff) for each binding interaction, whose ratio gave the equilibrium dissociation constant (KD=koff/kon).
(§3) High-resolution analysis of binding interactions with extremely slow off rates. […] The protocol described above was used with the following modifications. The association rate constant (kon) was determined by injecting a 2-fold titration series (in duplicate) spanning 550 nM-1 nM for 30 seconds at 100 μL/min and allowing only a 30 second dissociation phase. The dissociation rate constant (koff) was determined by injecting three concentrations (high, medium, and low) of the same titration series in duplicate for 30 seconds and allowing a 2-hour dissociation phase. The affinity (KD) of each interaction was obtained by combining the kon and koff values obtained in both types of experiments, as shown in Table 4.
For orientation: Surface plasmon resonance follows binding to a sensor surface in real time, without labels.

The target of a further assay is T2, human α-CGRP (Homo sapiens, UniProt P06881).
T2 construct: 1-37 (WT); purchased GenScript Corporation or Global Peptide Services
T2 sequence (P06881 83-119 limits assumed): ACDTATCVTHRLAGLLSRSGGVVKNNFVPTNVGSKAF
As to the kind of experiment: Biacore SPR affinity of Fab fragments to N-biotinylated human α-CGRP on SA chip. It counts as binding. The note with it: 37° C., screening mode except underlined values. As for the experimental part: as §1, §2, §3

B1: M57: G1 variant; L1 R28N T30D; L2 L56S; H2 E54K A57N S58E; HC-FW3 L99T A100V (antibody, V domains shown)
VH: EVQLVESGGGLVQPGGSLRLSCAASGFTFSNYWISWVRQAPGKGLEWVAEIRSKSDNEATHYAEAVKGRFTISRDNAKNSLYLQMNSLRAEDTAVYYCTVYFDYGLAIQNYWGQGTLVTVSS
VL: EIVLTQSPATLSLSPGERATLSCKASKNVDTYVSWYQQKPGQAPRLLIYGASNRYSGIPARFSGSGSGTDFTLTISSLEPEDFAVYYCSQSYNYPYTFGQGTKLEIK
For B1, the “α-rat koff” value with rat α-CGRP worked out at 0.0104 s⁻¹. In addition, in the assay with human α-CGRP, the “α-human koff” value turned out to be 0.000322 s⁻¹.

B2: M61: G1 variant; L1 R28N T30G; L2 A51H; H2 E54Q A57N H61F; HC-FW3 L99T A100V (antibody, V domains shown)
VH: EVQLVESGGGLVQPGGSLRLSCAASGFTFSNYWISWVRQAPGKGLEWVAEIRSQSDNSATFYAEAVKGRFTISRDNAKNSLYLQMNSLRAEDTAVYYCTVYFDYGLAIQNYWGQGTLVTVSS
VL: EIVLTQSPATLSLSPGERATLSCKASKNVGTYVSWYQQKPGQAPRLLIYGHSNRYLGIPARFSGSGSGTDFTLTISSLEPEDFAVYYCSQSYNYPYTFGQGTKLEIK
For B2, the “α-rat koff” value in the assay with rat α-CGRP worked out at 0.00521 s⁻¹. The “α-human koff” value with human α-CGRP is 0.000459 s⁻¹.

B3: M65: G1 variant; L1 R28N T30G; L2 G50A L56I; H2 E54K A57C; HC-FW3 L99T A100V (antibody, V domains shown)
VH: EVQLVESGGGLVQPGGSLRLSCAASGFTFSNYWISWVRQAPGKGLEWVAEIRSKSDCSATHYAEAVKGRFTISRDNAKNSLYLQMNSLRAEDTAVYYCTVYFDYGLAIQNYWGQGTLVTVSS
VL: EIVLTQSPATLSLSPGERATLSCKASKNVGTYVSWYQQKPGQAPRLLIYAASNRYIGIPARFSGSGSGTDFTLTISSLEPEDFAVYYCSQSYNYPYTFGQGTKLEIK
B3: the “α-rat koff” value in the assay with rat α-CGRP turned out to be 0.00407 s⁻¹. Besides, the “α-human koff” value with human α-CGRP was found to be 0.000803 s⁻¹.

B4: M66: G1 variant; L1 R28N T30G; L2 L561; H2 E54K A57E; HC-FW3 L99T A100V (antibody, V domains shown)
VH: EVQLVESGGGLVQPGGSLRLSCAASGFTFSNYWISWVRQAPGKGLEWVAEIRSKSDESATHYAEAVKGRFTISRDNAKNSLYLQMNSLRAEDTAVYYCTVYFDYGLAIQNYWGQGTLVTVSS
VL: EIVLTQSPATLSLSPGERATLSCKASKNVGTYVSWYQQKPGQAPRLLIYGASNRYIGIPARFSGSGSGTDFTLTISSLEPEDFAVYYCSQSYNYPYTFGQGTKLEIK
Turning to B4, the “α-rat koff” value with rat α-CGRP was 0.00511 s⁻¹. Besides, the “α-human koff” value with human α-CGRP is 0.00052 s⁻¹.

B5: M62: G1 variant; L1 R28N T30G; L2 A51H L56T; H2 E54K A57N S58E; HC-FW3 L99T A100V (antibody, V domains shown)
VH: EVQLVESGGGLVQPGGSLRLSCAASGFTFSNYWISWVRQAPGKGLEWVAEIRSKSDNEATHYAEAVKGRFTISRDNAKNSLYLQMNSLRAEDTAVYYCTVYFDYGLAIQNYWGQGTLVTVSS
VL: EIVLTQSPATLSLSPGERATLSCKASKNVGTYVSWYQQKPGQAPRLLIYGHSNRYTGIPARFSGSGSGTDFTLTISSLEPEDFAVYYCSQSYNYPYTFGQGTKLEIK
For the molecule B5, the “α-rat koff” value with rat α-CGRP amounted to 0.00575 s⁻¹. For the same molecule, the “α-human koff” value in the assay with human α-CGRP was 0.000557 s⁻¹.

B6: M58: G1 variant; L1 R28N T30D; L2 L56S; H2 E54K A57N S58I H61F; HC-FW3 L99T A100V (antibody, V domains shown)
VH: EVQLVESGGGLVQPGGSLRLSCAASGFTFSNYWISWVRQAPGKGLEWVAEIRSKSDNIATFYAEAVKGRFTISRDNAKNSLYLQMNSLRAEDTAVYYCTVYFDYGLAIQNYWGQGTLVTVSS
VL: EIVLTQSPATLSLSPGERATLSCKASKNVDTYVSWYQQKPGQAPRLLIYGASNRYSGIPARFSGSGSGTDFTLTISSLEPEDFAVYYCSQSYNYPYTFGQGTKLEIK
With B6, in the assay with rat α-CGRP, the “α-rat koff (1/s)” value is recorded as “No binding”. Further, in the assay with human α-CGRP, the “α-human koff” value came to 0.00195 s⁻¹.

B7: M67: G1 variant; L1 R28N T30G; L2 L561; H2 E54K A57F; HC-FW3 L99T A100V (antibody, V domains shown)
VH: EVQLVESGGGLVQPGGSLRLSCAASGFTFSNYWISWVRQAPGKGLEWVAEIRSKSDFSATHYAEAVKGRFTISRDNAKNSLYLQMNSLRAEDTAVYYCTVYFDYGLAIQNYWGQGTLVTVSS
VL: EIVLTQSPATLSLSPGERATLSCKASKNVGTYVSWYQQKPGQAPRLLIYGASNRYIGIPARFSGSGSGTDFTLTISSLEPEDFAVYYCSQSYNYPYTFGQGTKLEIK
As for B7, the “α-rat koff” value with rat α-CGRP came to 0.00171 s⁻¹. Also, the “α-human koff” value in the assay with human α-CGRP was 0.00082 s⁻¹.

B8: M64: G1 variant; L1 R28N T30G; L2 G50A; H2 E54K A57N S58V; HC-FW3 L99T A100V (antibody, V domains shown)
VH: EVQLVESGGGLVQPGGSLRLSCAASGFTFSNYWISWVRQAPGKGLEWVAEIRSKSDNVATHYAEAVKGRFTISRDNAKNSLYLQMNSLRAEDTAVYYCTVYFDYGLAIQNYWGQGTLVTVSS
VL: EIVLTQSPATLSLSPGERATLSCKASKNVGTYVSWYQQKPGQAPRLLIYAASNRYLGIPARFSGSGSGTDFTLTISSLEPEDFAVYYCSQSYNYPYTFGQGTKLEIK
Turning to B8, the “α-rat koff” value with rat α-CGRP was 0.0234 s⁻¹. In the assay with human α-CGRP, the “α-human koff” value was 0.00132 s⁻¹.

B9: M59: G1 variant; L1 R28N T30D; L2 L56S; H2 E54K A57N S58N H61F; HC-FW3 L99T A100V (antibody, V domains shown)
VH: EVQLVESGGGLVQPGGSLRLSCAASGFTFSNYWISWVRQAPGKGLEWVAEIRSKSDNNATFYAEAVKGRFTISRDNAKNSLYLQMNSLRAEDTAVYYCTVYFDYGLAIQNYWGQGTLVTVSS
VL: EIVLTQSPATLSLSPGERATLSCKASKNVDTYVSWYQQKPGQAPRLLIYGASNRYSGIPARFSGSGSGTDFTLTISSLEPEDFAVYYCSQSYNYPYTFGQGTKLEIK
Turning to B9, the “α-rat koff” value with rat α-CGRP turned out to be 0.0123 s⁻¹. Further, the “α-human koff” value in the assay with human α-CGRP turned out to be 0.000524 s⁻¹.

B10: M60: G1 variant; L1 R28N T30D; L2 L56S; H2 E54K A57N S58R H61F; HC-FW3 L99T A100V (antibody, V domains shown)
VH: EVQLVESGGGLVQPGGSLRLSCAASGFTFSNYWISWVRQAPGKGLEWVAEIRSKSDNRATFYAEAVKGRFTISRDNAKNSLYLQMNSLRAEDTAVYYCTVYFDYGLAIQNYWGQGTLVTVSS
VL: EIVLTQSPATLSLSPGERATLSCKASKNVDTYVSWYQQKPGQAPRLLIYGASNRYSGIPARFSGSGSGTDFTLTISSLEPEDFAVYYCSQSYNYPYTFGQGTKLEIK
For B10, in the assay with rat α-CGRP, the “α-rat koff” value was 0.0272 s⁻¹. The “α-human koff” value with human α-CGRP came to 0.000911 s⁻¹.

B11: M63: G1 variant; L1 R28N T30G; L2 G50A; H2 E54K A57N S58T; HC-FW3 L99T A100V (antibody, V domains shown)
VH: EVQLVESGGGLVQPGGSLRLSCAASGFTFSNYWISWVRQAPGKGLEWVAEIRSKSDNTATHYAEAVKGRFTISRDNAKNSLYLQMNSLRAEDTAVYYCTVYFDYGLAIQNYWGQGTLVTVSS
VL: EIVLTQSPATLSLSPGERATLSCKASKNVGTYVSWYQQKPGQAPRLLIYAASNRYLGIPARFSGSGSGTDFTLTISSLEPEDFAVYYCSQSYNYPYTFGQGTKLEIK
B11: the “α-rat koff” value in the assay with rat α-CGRP came out at 0.00265 s⁻¹. Also, the “α-human koff” value with human α-CGRP worked out at 0.0015 s⁻¹.

The record behind these values is patent US20190071490A1, “Preventing Post-Ictal Headaches” (Beth Israel Deaconess Medical Center, Inc., priority 2017, published 2019).
